# Assay results: the Human Domainome abundance scans (Beltran et al. 2025)
# ± gives the uncertainty stated by the source.
# B1: E3 ubiquitin-protein ligase TRIM36, residues 208 to 252; numbered along this chain, Q9NQ86 (parent)
# chain: KILMCPEHETERINMYCELCRRPVCHLCKLGGNHANHRVTTMSSA
# Variants of: B1
# Assay: abundance fitness (aPCA) (normalised: wild type 0, dead -1); higher = more abundant; growth selection in yeast, the domain comes from the species named
# Settings: Homo sapiens
row,Variant,abundance fitness
1,KILMCPEHETERINMYCELCRRPVCHLCKLGGNHADHRVTTMSSA [N36D],-0.005 ± 0.077
2,KILMCPEHETERINMYCELCRRPVCHLCKLGGNHASHRVTTMSSA [N36S],-0.052 ± 0.051
3,KILMCPEHETERINMYCELCRRPVCHLCKLGGNHAKHRVTTMSSA [N36K],-0.023 ± 0.08
4,KILMCPEHETERINMYCELCRRPVCHLCKLGGNHAWHRVTTMSSA [N36W],-0.299 ± 0.051
5,KILMCPEHETERINMYCELCRRPVCHLCKLGGNHAIHRVTTMSSA [N36I],-0.225 ± 0.066
6,KILMCPEHETERINMYCELCRRPVCHLCKLGGNHAQHRVTTMSSA [N36Q],0.021 ± 0.063
7,KILMCPEHETERINMYCELCRRPVCHLCKLGGNHAEHRVTTMSSA [N36E],0.039 ± 0.064
8,KILMCPEHETERINMYCELCRRPVCHLCKLGGNHAAHRVTTMSSA [N36A],0.029 ± 0.049
9,KILMCPEHETERINMYCELCRRPVCHLCKLGGNHATHRVTTMSSA [N36T],-0.024 ± 0.054
10,KILMCPEHETERINMYCELCRRPVCHLCKLGGNHAFHRVTTMSSA [N36F],-0.017 ± 0.15
11,KILMCPEHETERINMYCELCRRPVCHLCKLGGNHAMHRVTTMSSA [N36M],-0.109 ± 0.068
12,KILMCPEHETERINMYCELCRRPVCHLCKLGGNHAYHRVTTMSSA [N36Y],-0.147 ± 0.089
13,KILMCPEHETERINMYCELCRRPVCHLCKLGGNHAGHRVTTMSSA [N36G],-0.059 ± 0.053
14,KILMCPEHETERINMYCELCRRPVCHLCKLGGNHACHRVTTMSSA [N36C],-0.017 ± 0.067
15,KILMCPEHETERINMYCELCRRPVCHLCKLGGNHAVHRVTTMSSA [N36V],-0.202 ± 0.052
16,KILMCPEHETERINMYCELCRRPVCHLCKLGGNHALHRVTTMSSA [N36L],-0.097 ± 0.049
17,KILMCPEHETERINMYCELCRRPVCHLCKLGGNHAHHRVTTMSSA [N36H],-0.05 ± 0.058
18,KILMCPEHETERINMYCELCRRPVCHLCKLGGNHWNHRVTTMSSA [A35W],-0.309 ± 0.053
19,KILMCPEHETERINMYCELCRRPVCHLCKLGGNHNNHRVTTMSSA [A35N],-0.339 ± 0.12

row,Variant,abundance fitness
1,KILMCPEHETERINMYCELCRRPVCHLCKLGGNHYNHRVTTMSSA [A35Y],-0.137 ± 0.09
2,KILMCPEHETERINMYCELCRRPVCHLCKLGGNHPNHRVTTMSSA [A35P],-0.182 ± 0.074
3,KILMCPEHETERINMYCELCRRPVCHLCKLGGNHTNHRVTTMSSA [A35T],-0.068 ± 0.056
4,KILMCPEHETERINMYCELCRRPVCHLCKLGGNHDNHRVTTMSSA [A35D],0.085 ± 0.098
5,KILMCPEHETERINMYCELCRRPVCHLCKLGGNHHNHRVTTMSSA [A35H],-0.149 ± 0.098
6,KILMCPEHETERINMYCELCRRPVCHLCKLGGNHINHRVTTMSSA [A35I],0.255 ± 0.49
7,KILMCPEHETERINMYCELCRRPVCHLCKLGGNHRNHRVTTMSSA [A35R],-0.129 ± 0.048
8,KILMCPEHETERINMYCELCRRPVCHLCKLGGNHLNHRVTTMSSA [A35L],-0.091 ± 0.056
9,KILMCPEHETERINMYCELCRRPVCHLCKLGGNHSNHRVTTMSSA [A35S],-0.052 ± 0.054
10,KILMCPEHETERINMYCELCRRPVCHLCKLGGNHQNHRVTTMSSA [A35Q],-0.05 ± 0.07
11,KILMCPEHETERINMYCELCRRPVCHLCKLGGNHENHRVTTMSSA [A35E],0.009 ± 0.075
12,KILMCPEHETERINMYCELCRRPVCHLCKLGGNHKNHRVTTMSSA [A35K],-0.078 ± 0.072
13,KILMCPEHETERINMYCELCRRPVCHLCKLGGNHVNHRVTTMSSA [A35V],-0.011 ± 0.05
14,KILMCPEHETERINMYCELCRRPVCHLCKLGGNHANHAVTTMSSA [R38A],0.021 ± 0.049
15,KILMCPEHETERINMYCELCRRPVCHLCKLGGNHANHCVTTMSSA [R38C],0.017 ± 0.067
16,KILMCPEHETERINMYCELCRRPVCHLCKLGGNWANHRVTTMSSA [H34W],-0.733 ± 0.063
17,KILMCPEHETERINMYCELCRRPVCHLCKLGGNTANHRVTTMSSA [H34T],-0.338 ± 0.063
18,KILMCPEHETERINMYCELCRRPVCHLCKLGGNVANHRVTTMSSA [H34V],-0.444 ± 0.056
19,KILMCPEHETERINMYCELCRRPVCHLCKLGGNYANHRVTTMSSA [H34Y],-0.562 ± 0.072

row,Variant,abundance fitness
1,KILMCPEHETERINMYCELCRRPVCHLCKLGGNSANHRVTTMSSA [H34S],-0.318 ± 0.054
2,KILMCPEHETERINMYCELCRRPVCHLCKLGGNHANNRVTTMSSA [H37N],-0.231 ± 0.078
3,KILMCPEHETERINMYCELCRRPVCHLCKLGGNHANARVTTMSSA [H37A],-0.027 ± 0.051
4,KILMCPEHETERINMYCELCRRPVCHLCKLGGNHANPRVTTMSSA [H37P],-0.194 ± 0.058
5,KILMCPEHETERINMYCELCRRPVCHLCKLGGNHANQRVTTMSSA [H37Q],-0.119 ± 0.065
6,KILMCPEHETERINMYCELCRRPVCHLCKLGGNHANKRVTTMSSA [H37K],-0.176 ± 0.068
7,KILMCPEHETERINMYCELCRRPVCHLCKLGGNHANLRVTTMSSA [H37L],-0.26 ± 0.051
8,KILMCPEHETERINMYCELCRRPVCHLCKLGGNHANRRVTTMSSA [H37R],-0.242 ± 0.045
9,KILMCPEHETERINMYCELCRRPVCHLCKLGGNHANFRVTTMSSA [H37F],-0.486 ± 0.092
10,KILMCPEHETERINMYCELCRRPVCHLCKLGGNHANERVTTMSSA [H37E],-0.038 ± 0.054
11,KILMCPEHETERINMYCELCRRPVCHLCKLGGNHANSRVTTMSSA [H37S],-0.198 ± 0.063
12,KILMCPEHETERINMYCELCRRPVCHLCKLGGNHANDRVTTMSSA [H37D],-0.217 ± 0.063
13,KILMCPEHETERINMYCELCRRPVCHLCKLGGNHANWRVTTMSSA [H37W],-0.44 ± 0.054
14,KILMCPEHETERINMYCELCRRPVCHLCKLGGNHANMRVTTMSSA [H37M],-0.298 ± 0.069
15,KILMCPEHETERINMYCELCRRPVCHLCKLGGNHANIRVTTMSSA [H37I],-0.529 ± 0.16
16,KILMCPEHETERINMYCELCRRPVCHLCKLGGNHANYRVTTMSSA [H37Y],-0.36 ± 0.12
17,KILMCPEHETERINMYCELCRRPVCHLCKLGGNHANCRVTTMSSA [H37C],-0.007 ± 0.061
18,KILMCPEHETERINMYCELCRRPVCHLCKLGGNHANTRVTTMSSA [H37T],-0.208 ± 0.064
19,KILMCPEHETERINMYCELCRRPVCHLCKLGGNHANGRVTTMSSA [H37G],-0.127 ± 0.046
